Data set [1] has as its target T1, soybean trypsin inhibitor (SBTI), P01070.
T1 chain: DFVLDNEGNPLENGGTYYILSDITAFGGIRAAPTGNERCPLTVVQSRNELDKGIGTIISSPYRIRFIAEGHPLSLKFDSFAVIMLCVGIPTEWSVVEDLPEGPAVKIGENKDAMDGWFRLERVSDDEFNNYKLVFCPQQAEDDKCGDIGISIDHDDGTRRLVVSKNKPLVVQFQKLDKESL
The data set is described as follows: affinity chromatography of KCl-extracts of plantar corneocytes on covalently linked soybean trypsin inhibitor.

Data set [2] deals with desmoglein I (DG I) (Homo sapiens (Human)) (UniProt Q02413).
Chain of desmoglein I (DG I) (Homo sapiens (Human)) (Q02413 50-1049 limits assumed): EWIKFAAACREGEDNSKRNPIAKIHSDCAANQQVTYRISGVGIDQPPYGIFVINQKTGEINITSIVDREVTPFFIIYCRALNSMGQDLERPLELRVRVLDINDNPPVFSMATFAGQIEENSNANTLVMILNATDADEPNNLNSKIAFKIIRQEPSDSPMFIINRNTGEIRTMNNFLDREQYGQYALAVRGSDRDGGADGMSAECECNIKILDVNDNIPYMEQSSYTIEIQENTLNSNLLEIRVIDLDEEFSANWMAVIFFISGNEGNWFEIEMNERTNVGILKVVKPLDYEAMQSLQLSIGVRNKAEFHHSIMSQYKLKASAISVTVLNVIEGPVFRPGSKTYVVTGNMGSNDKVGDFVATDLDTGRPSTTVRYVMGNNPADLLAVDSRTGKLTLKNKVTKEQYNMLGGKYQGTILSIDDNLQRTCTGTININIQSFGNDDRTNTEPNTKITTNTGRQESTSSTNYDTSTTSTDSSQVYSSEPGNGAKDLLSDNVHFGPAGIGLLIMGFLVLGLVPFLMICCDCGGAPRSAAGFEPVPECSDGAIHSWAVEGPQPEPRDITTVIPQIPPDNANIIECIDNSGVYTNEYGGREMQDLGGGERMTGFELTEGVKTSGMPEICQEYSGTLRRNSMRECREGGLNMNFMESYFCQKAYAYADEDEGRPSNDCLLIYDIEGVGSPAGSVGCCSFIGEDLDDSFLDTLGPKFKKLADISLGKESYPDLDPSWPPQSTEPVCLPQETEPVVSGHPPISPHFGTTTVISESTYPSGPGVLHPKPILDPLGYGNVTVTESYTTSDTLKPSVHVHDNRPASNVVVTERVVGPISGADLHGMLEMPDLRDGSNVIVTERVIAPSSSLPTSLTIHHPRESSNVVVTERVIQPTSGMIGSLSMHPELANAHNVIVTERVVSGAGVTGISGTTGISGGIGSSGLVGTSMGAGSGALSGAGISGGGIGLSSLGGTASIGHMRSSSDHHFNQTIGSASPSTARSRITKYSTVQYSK

B1: stratum corneum chymotryptic enzyme (SCCE), native, from human plantar stratum corneum (protein)
chain: IIDGAPCARGSHPWQVALLSGNQLHCGGVLVNERWVLTAAHCKMNEYTVHLGSDTLGDRRAQRIKASKSFRHPGYSTQTHVNDLMLVKLNSQARLSSMVKKVRLPSRCEPPGTTCTVSGWGTTTSPDVTFPSDLMCVDVKLISPQDCTKVYKDLLENSMLCAGIPDSKKNACNGDSGGPLVCRGTLQGLVSWGTFPCGQPNDPGVYTQVCKFTKWINDTMKKHR
Regarding B1, the “percent of the S-2586 hydrolyzing activity bound to the gel” value in data set [1] is “Approximately 90% of the S-2586 hydrolyzing activity was bound to the gel”.

B2: recombinant SCCE, active (trypsin-activated recombinant SCCE of Example 10; rSCCE of Examples 12 and 13) (enzyme)
chain: B1 chain
For B2, in data set [2], the levels of the desmosome marker protein desmoglein I after 24 hours at 37° C., DG I (arbitrary units/mg squames) (arbitrary units/mg squames) amounted to 4060.
